From patent publication US20100285015A1 (University of Pennsylvania, published 2010)

Molecular target: T1, mouse HMGB1 (produced in E. coli (Sigma)) (mouse, UniProt P63158 1-215, limits assumed)
T1 construct: Bought reagent; also called late cytokine (HMGB1); recombinant HMGB1
T1 sequence (looked up): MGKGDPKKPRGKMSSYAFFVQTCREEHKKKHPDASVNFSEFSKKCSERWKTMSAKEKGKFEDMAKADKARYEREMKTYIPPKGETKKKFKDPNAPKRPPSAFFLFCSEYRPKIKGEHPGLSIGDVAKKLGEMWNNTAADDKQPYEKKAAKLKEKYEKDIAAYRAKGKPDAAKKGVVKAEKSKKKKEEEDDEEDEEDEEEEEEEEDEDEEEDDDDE
Assay: agglutination of Ter119-TM loaded mouse RBCs after HMGB1 and anti-HMGB1 antibody
Method: Mouse and human RBCs were washed in PBS/3% BSA buffer, resuspended in the same buffer to 10% hematocrit and incubated with Ter119-TM (final concentration […]) for 1 h. […] Then cells were washed 3 times with PBS/BSA buffer and equimolar amount of mouse HMGB1 (produced in E. coli (Sigma)) was added to the assay for 30 min at room temperature. Then RBC were washed with PBS/BSA and brought to the final hematocrit of 1% and the monoclonal Ab to mouse HMGB1 (Sigma, dilution as per manufacturer) was added to the assay placed into a V-shaped plate (total volume-100 μl).

B1: Ter119scFv-TM (thrombomodulin) fusion protein (other)
chain: RSPWPGVPTSQVKLQESGGGLVQPGGSLKLSCVASGFTFRDHWMNWVRQAPGKTMEWIGDIRPDGSDTNYAPSVRNRFTISRDNARSILYLQMSNMRSDYTATYYCVRDSPTRAGLMDAWGQGASVTVLTGGGGSGGGGSGGGGSDIQMIQSPSVLSASVGDRVTLNCKASQNINKYLNWYQQKLGEAPKVLIYNTNNLQTGIPSRFSGSGSGTDFTLTISSLQPEDFATYFCFQHYTWPTFGGGTKLELKRASSSSGSSSSGAAALSALAKLQPTGSQCVEHECFALFQGPATFLDASQACQRLQGHLMTVRSSVAADVISLLLSQSSMDLGPWIGLQLPQGCDDPVHLGPLRGFQWVTGDNHTSYSRWARPNDQTAPLCGPLCVTVSTATEAAPGEPAWEEKPCETETQGFLCEFYFTASCRPLTVNTRDPEAAHISSTYNTPFGVSGADFQTLPVGSSAAVEPLGLELVCRAPPGTSEGHWAWEATGAWNCSVENGGCEYLCNRSTNEPRCLCPRDMDLQADGRSCARPVVQSCNELCEHFCVSNAEVPGSYSCMCETGYQLAADGHRCEDVDDCKQGPNPCPQLCVNTKGGFECFCYDGYELVDGECVELLDPCFGSNCEFQCQPVSPTDYRCICAPGFAPKPDEPHKCEMFCNETSCPADCDPNSPTVCECPEGFILDEGSVCTDIDECSQGECFTSECRNFPGSYECICGPDTALAGQISKDCDPIPVREDTKEEEGSGEPPVSPTPGSPTGPPSARPVHSDYKDHDGDYKDHDIDYKDDDDK
notes: Expressed in Drosophila S2 cells from a pMT/BiP/V5-HisA plasmid; Some assays used it directly from S2 cell medium; also called Ter119-TM
Question: Does B1 bind?
Answer: binds
